The values below come from patent US20250206828A1, “ANTI-ADENOSINE RECEPTOR (A2aR) ANTIBODIES AND THE USE THEREOF” (Adept Therapeutics Inc., priority 2022, published 2025).

The test system of assay [1] is human PBMCs (CD4 T, CD8 T, NK cells). Description: Restoration of IFN-γ and IL-2 production of NECA-suppressed T cells and NK cells (intracellular cytokine staining). It is filed as cell-based. Conditions: NECA; test substance 2 μg/ml. Here is the method: (§1) Two hundred thousand (2×10^5) human peripheral blood mononuclear cells (PBMCs) human PBMC in complete IMDM medium were aliquoted into each well in a 96-well plate and the cells in the 96-well plate were pre-incubated with antibodies or small molecule inhibitors at indicated concentration for 90 minutes, followed by addition of T cell activator anti-CD3/28 dynabeads (Gibco, Cat #11132D) at ratio of 1:4 (Beads: PBMC, v/v) and NECA (DiscoverX, Cat #92-1191, final concentration […]). Cells were cultured in an incubator at 37° C., 5% CO2 for 24 hours. Cells were then collected and stimulated with anti-CD3/28 dynabeads in the presence of GolgiPlug™ Protein Transport Inhibitor (BD Biosciences, Cat #555028) according to manufacturer's manual for 4 hours. Thereafter, cells were incubated with human TruStain FcX block (Biolegend, Cat #422302) and True-Stain monocyte blocker (Biolegend, Cat #426103) for 15 minutes according the manufacturer's manual, and cells were then stained with surface markers PE-anti-CD4 (Biolegend, Cat #300550), PerCP-cy5.5-anti-CD8 (Biolegend, Cat #301032), APC/cy7-anti-CD3 (Biolegend, Cat #300426) and PE/cy7-anti-CD56 (Biolegend, Cat #362509), PE/cy7-anti-CD56 (Biolegend, Cat #362509), BV711-anti-CD25 (Biolegend, Cat #302636) and BV605-anti-CD69 (Biolegend, Cat #31938 After wash with FACS buffer, cells were stained with BV421-anti-IFN-γ (BD Bioscience, Cat #562988) and APC anti-IL-2 (BD Bioscience, cat #551383) using intracellular cytokine staining kit (BD Biosciences, cat #555028) following manufacturer's instruction. Stained samples were analyzed on FACSAria III machine. Data were analyzed using Flowjo software.

For assay [2], the system named is human PBMCs (CD4 and CD8 T cells). Description: Restoration of CD25 and CD69 activation markers on NECA-suppressed CD4 and CD8 T cells. The note with it: test substance 2 μg/ml. Type of assay: cell-based. The method, then: as §1
For assay [3], the target named is human adenosine A2A receptor (A2aR) (human, UniProt P29274 1-412). As to the kind of experiment: flow cytometry, HEK293-hA2aR cells, supernatant 1 ug/ml. On the technique in general: Flow cytometry measures light scatter and fluorescence of single cells or particles in a stream.
human adenosine A2A receptor (A2aR), sequence (P29274 whole entry): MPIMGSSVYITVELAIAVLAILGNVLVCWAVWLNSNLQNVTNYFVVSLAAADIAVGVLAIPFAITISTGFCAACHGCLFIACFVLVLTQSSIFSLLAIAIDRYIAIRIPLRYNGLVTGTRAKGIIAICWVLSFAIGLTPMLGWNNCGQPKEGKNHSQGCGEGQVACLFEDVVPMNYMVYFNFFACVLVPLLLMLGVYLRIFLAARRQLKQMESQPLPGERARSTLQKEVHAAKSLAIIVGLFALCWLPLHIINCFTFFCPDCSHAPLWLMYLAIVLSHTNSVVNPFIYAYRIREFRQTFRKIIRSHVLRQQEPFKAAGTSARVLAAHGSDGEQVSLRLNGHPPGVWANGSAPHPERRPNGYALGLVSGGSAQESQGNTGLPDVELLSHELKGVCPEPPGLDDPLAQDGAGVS
In another assay the target is human A2aR (Homo sapiens, UniProt P29274). Description: Binding of humanized anti-A2aR antibodies in transfected Expi293F cell supernatant to human A2aR on HEK293 cells (FACS, MFI). The note with it: supernatant with 1 μg/ml antibody; HEK293 overexpressing human A2aR; heavy chain (row) x light chain. The method, then: Briefly, HEK293 cells that stably overexpress human A2aR (HEK-hA2aR OCL, BPS Bioscience, Cat. 79381) were collected from fresh culture. Cells were then resuspended in FACS buffer (1×DPBS/1% FBS) at 10^6/ml concentration. One hundred microliters (100 μl) of cells were aliquoted into each well of a 96 well plates. After centrifugation, cell pellets in each well were then resuspended with 100 μl normalized supernatant samples containing 1 μg/ml humanized anti-A2aR monoclonal antibody variants collected from transfected Expi293 cell culture. The supernatants were mixed with the cells and incubated on ice for 1 hours. After washing the mixtures of the supernatants containing expressed antibodies and the A2aR-expressing cells with FACS buffer, one hundred microliters (100 μl) of 1:400 diluted PE-conjugated anti-human Fc secondary antibody (Jackson Immuno Research, Cat. 109-116-098) was added to each well followed by an incubation for 30 minutes on ice. After washes with FACS buffer, stained cells were resuspended in 150 μl of 7-AAD (Biolegend, Cat. 420404) diluted 1:100 in 1×DPBS buffer and incubate for 5 minutes in the dark at room temperature before FACS analysis. The mean fluorescence intensity (MFI) was obtained using Guava 11HT or 5HT (Luminex). Data was analyzed using Flowjo software.
human A2aR, sequence (P29274 whole entry): as above
As shown in Tables 22-24, exemplary humanized anti-A2aR antibodies bind to A2aR expressed on a cell surface. A greater MFI value means stronger binding of the exemplary antibody to A2aR expressed on a cell surface.

Take `Cc1cc(-c2nnc(N)nc2-c2ccc(F)cc2)cc(Cl)n1` [AZD4635]: in assay [1], the “% of cells IFNγ+, CD4 T cells” value turned out to be 3.41%; the “% of cells IFNγ+, CD8 T cells” value came out at 13.3%; the “% of cells IFNγ+, NK cells” value came to 8.91%; the “% of cells IL-2+, CD4 T cells” value is 10.4%. Also, the “% of cells IL-2+, CD8 T cells” value in assay [1] is on record as 2.57%. In assay [2], the “% of cells CD25+, CD4 T cells” value is given as 48.8%; the “% of cells CD25+, CD8 T cells” value came to 26%; the “% of cells CD69+, CD4 T cells” value was 48.1%; the “% of cells CD69+, CD8 T cells” value is listed as 49.1%.

B1: Hu3F8-H4/Hu3F8-L1 (antibody, human IgG1, V domains shown)
VH: EVQLVQSGAEVKKPGASVKVSCKASGFTFTRYWMNWVRQAPGQGLEWIGRIDPSDSETHYNHKFWGRATLTVDKSTSTVYMELSSLRSEDTAVYYCLRSLYGKGDYWGQGTTVTVSS
VL: DVVMTQSPLSLPVTLGQPASISCRSSQSIVHSNGNTYLEWFQQRPGQSPRRLIYKVSNRFSGVPDRFSGSGSGTDFTLKISRVEAEDVGVYYCYQGSHVPLTFGGGTKVEIK
Turning to B1, the MFI in assay [3] was 110 MFI.

B2: Hu3F8-H3/Hu3F8-L2: humanized anti-A2aR IgG1 FES antibody; HCVR SEQ ID NO:66, LCVR SEQ ID NO:85 (antibody, V domains shown)
VH: EVQLVQSGAEVKKPGASVKVSCKASGFTFTRYWMNWVRQAPGQGLEWIGRIDPSDSETHYNHKFWGRATLTVDTSTSTVYMELSSLRSEDTAVYYCLRSLYGKGDYWGQGTTVTVSS
VL: DVVMTQSPLSLPVTLGQPASISCRSSQSIVHSNGNTYLEWYQQRPGQSPRRLIYKVSNRFSGVPDRFSGSGSGTDFTLKISRVEAEDVGVYYCYQGSHVPLTFGGGTKVEIK
As for B2, in the assay with human A2aR, the “MFI, binding to human A2aR on cell surface (3F8-12E9 derived)” value (“MFI, binding to human A2aR” for short) is 93.

B3: Hu3F8-H5/Hu3F8-L1: humanized anti-A2aR IgG1 FES antibody; HCVR SEQ ID NO:68, LCVR SEQ ID NO:84 (antibody, V domains shown)
VH: EVQLVQSGAEVKKPGASVKVSCKASGFTFTRYWMNWVRQAPGQGLEWIGRIDPSDSETHYNAKFWGRATLTVDKSTSTVYMELSSLRSEDTAVYYCLRSLYGKGDYWGQGTTVTVSS
VL: DVVMTQSPLSLPVTLGQPASISCRSSQSIVHSNGNTYLEWFQQRPGQSPRRLIYKVSNRFSGVPDRFSGSGSGTDFTLKISRVEAEDVGVYYCYQGSHVPLTFGGGTKVEIK
Regarding B3, in the assay with human A2aR, the “MFI, binding to human A2aR” value stood at 58.

B4: Hu3F8-H5/Hu3F8-L1 (antibody, human IgG1, V domains shown)
VH: EVQLVQSGAEVKKPGASVKVSCKASGFTFTRYWMNWVRQAPGQGLEWIGRIDPSDSETHYNAKFWGRATLTVDKSTSTVYMELSSLRSEDTAVYYCLRSLYGKGDYWGQGTTVTVSS
VL: DVVMTQSPLSLPVTLGQPASISCRSSQSIVHSNGNTYLEWFQQRPGQSPRRLIYKVSNRFSGVPDRFSGSGSGTDFTLKISRVEAEDVGVYYCYQGSHVPLTFGGGTKVEIK
For the molecule B4, the MFI in assay [3] is 58 MFI.

B5: Hu3F8-H5/Hu3F8-L2 (antibody, human IgG1, V domains shown)
VH: EVQLVQSGAEVKKPGASVKVSCKASGFTFTRYWMNWVRQAPGQGLEWIGRIDPSDSETHYNAKFWGRATLTVDKSTSTVYMELSSLRSEDTAVYYCLRSLYGKGDYWGQGTTVTVSS
VL: DVVMTQSPLSLPVTLGQPASISCRSSQSIVHSNGNTYLEWYQQRPGQSPRRLIYKVSNRFSGVPDRFSGSGSGTDFTLKISRVEAEDVGVYYCYQGSHVPLTFGGGTKVEIK
For the molecule B5, the MFI in assay [3] is 147 MFI.

B6: Hu3F8-H5/Hu3F8-L2: humanized anti-A2aR IgG1 FES antibody; HCVR SEQ ID NO:68, LCVR SEQ ID NO:85 (antibody, V domains shown)
VH: EVQLVQSGAEVKKPGASVKVSCKASGFTFTRYWMNWVRQAPGQGLEWIGRIDPSDSETHYNAKFWGRATLTVDKSTSTVYMELSSLRSEDTAVYYCLRSLYGKGDYWGQGTTVTVSS
VL: DVVMTQSPLSLPVTLGQPASISCRSSQSIVHSNGNTYLEWYQQRPGQSPRRLIYKVSNRFSGVPDRFSGSGSGTDFTLKISRVEAEDVGVYYCYQGSHVPLTFGGGTKVEIK
For B6, the “MFI, binding to human A2aR” value in the assay with human A2aR is reported as 147.

B7: Hu1B5-H2.1/Hu1B5-L1 (antibody, human IgG1, V domains shown)
VH: EVQLVQSGAEVKKPGASVKVSCKTSGFTFTRFWMNWVRQAPGQGLEWIGRIDPYDSETQYNHKFWDRVTMTVDTSTSTVYMELSSLRSEDTAVYYCGRSLYGKGDYWGQGTTVTVSS
VL: DVVMTQSPLSLPVTLGQPASISCRSSQSIVHSNGNTYLEWFQQRPGQSPRRLIYKVSNRFSGVPDRFSGSGSGTDFTLKISRVEAEDVGVYYCFQGSHVPLTFGGGTKVEIK
For the molecule B7, in assay [3], the MFI is 145 MFI.

B8: Hu3F8-H2/Hu3F8-L2: humanized anti-A2aR IgG1 FES antibody; HCVR SEQ ID NO:65, LCVR SEQ ID NO:85 (antibody, V domains shown)
VH: EVQLVQSGAEVKKPGASVKVSCKASGFTFTRYWMNWVRQAPGQGLEWMGRIDPSDSETHYNHKFWGRVTMTVDTSTSTVYMELSSLRSEDTAVYYCLRSLYGKGDYWGQGTTVTVSS
VL: DVVMTQSPLSLPVTLGQPASISCRSSQSIVHSNGNTYLEWYQQRPGQSPRRLIYKVSNRFSGVPDRFSGSGSGTDFTLKISRVEAEDVGVYYCYQGSHVPLTFGGGTKVEIK
With B8, the “MFI, binding to human A2aR” value with human A2aR amounted to 38.

B9: Hu3F8-H6/Hu3F8-L1: humanized anti-A2aR IgG1 FES antibody; HCVR SEQ ID NO:70, LCVR SEQ ID NO:84 (antibody, V domains shown)
VH: EVQLVQSGAEVKKPGESLRISCKASGFTFTRYWMNWVRQMPGKGLEWIGRIDPSDSETHYNHKFWGHATLSVDKSSSTVYLQWSSLKASDTAMYYCLRSLYGKGDYWGQGTTVTVSS
VL: DVVMTQSPLSLPVTLGQPASISCRSSQSIVHSNGNTYLEWFQQRPGQSPRRLIYKVSNRFSGVPDRFSGSGSGTDFTLKISRVEAEDVGVYYCYQGSHVPLTFGGGTKVEIK
On to B9, for which the “MFI, binding to human A2aR” value with human A2aR worked out at 158.

B10: Hu3F8-H4/Hu3F8-L2: humanized anti-A2aR IgG1 FES antibody; HCVR SEQ ID NO:67, LCVR SEQ ID NO:85 (antibody, V domains shown)
VH: EVQLVQSGAEVKKPGASVKVSCKASGFTFTRYWMNWVRQAPGQGLEWIGRIDPSDSETHYNHKFWGRATLTVDKSTSTVYMELSSLRSEDTAVYYCLRSLYGKGDYWGQGTTVTVSS
VL: DVVMTQSPLSLPVTLGQPASISCRSSQSIVHSNGNTYLEWYQQRPGQSPRRLIYKVSNRFSGVPDRFSGSGSGTDFTLKISRVEAEDVGVYYCYQGSHVPLTFGGGTKVEIK
For B10, the “MFI, binding to human A2aR” value with human A2aR is on record as 131.

B11: Hu3F8-H3/Hu3F8-L1: humanized anti-A2aR IgG1 FES antibody; HCVR SEQ ID NO:66, LCVR SEQ ID NO:84 (antibody, V domains shown)
VH: EVQLVQSGAEVKKPGASVKVSCKASGFTFTRYWMNWVRQAPGQGLEWIGRIDPSDSETHYNHKFWGRATLTVDTSTSTVYMELSSLRSEDTAVYYCLRSLYGKGDYWGQGTTVTVSS
VL: DVVMTQSPLSLPVTLGQPASISCRSSQSIVHSNGNTYLEWFQQRPGQSPRRLIYKVSNRFSGVPDRFSGSGSGTDFTLKISRVEAEDVGVYYCYQGSHVPLTFGGGTKVEIK
As for B11, the “MFI, binding to human A2aR” value with human A2aR was 64.

B12: Hu3F8-H4/Hu3F8-L2 (antibody, human IgG1, V domains shown)
VH: EVQLVQSGAEVKKPGASVKVSCKASGFTFTRYWMNWVRQAPGQGLEWIGRIDPSDSETHYNHKFWGRATLTVDKSTSTVYMELSSLRSEDTAVYYCLRSLYGKGDYWGQGTTVTVSS
VL: DVVMTQSPLSLPVTLGQPASISCRSSQSIVHSNGNTYLEWYQQRPGQSPRRLIYKVSNRFSGVPDRFSGSGSGTDFTLKISRVEAEDVGVYYCYQGSHVPLTFGGGTKVEIK
Consider B12, for which the MFI in assay [3] stood at 131 MFI.
